Reference: patent US20260250420A1 (SICHUAN KELUN BIOTECH BIOPHARMACEUTICAL, published 2026)
Blank lines part the entries; values can stand above or below the binder they belong to.

Key:
[1] = molecular target: T1, human PTK7 on cells (tumor cells endogenously expressing PTK7); CHO-hPTK7, CHO-S-hPTK7 and 293T-hPTK7 … (human, UniProt Q13308 31-1070); test: competition flow cytometry on 293T-hPTK7 cells, streptavidin-PE; competitor: biotin-labelled 64A10HZ
T1 construct: whole, on cells; The cell line of each value is named under assay; also called H1299; H358
T1 sequence (looked up): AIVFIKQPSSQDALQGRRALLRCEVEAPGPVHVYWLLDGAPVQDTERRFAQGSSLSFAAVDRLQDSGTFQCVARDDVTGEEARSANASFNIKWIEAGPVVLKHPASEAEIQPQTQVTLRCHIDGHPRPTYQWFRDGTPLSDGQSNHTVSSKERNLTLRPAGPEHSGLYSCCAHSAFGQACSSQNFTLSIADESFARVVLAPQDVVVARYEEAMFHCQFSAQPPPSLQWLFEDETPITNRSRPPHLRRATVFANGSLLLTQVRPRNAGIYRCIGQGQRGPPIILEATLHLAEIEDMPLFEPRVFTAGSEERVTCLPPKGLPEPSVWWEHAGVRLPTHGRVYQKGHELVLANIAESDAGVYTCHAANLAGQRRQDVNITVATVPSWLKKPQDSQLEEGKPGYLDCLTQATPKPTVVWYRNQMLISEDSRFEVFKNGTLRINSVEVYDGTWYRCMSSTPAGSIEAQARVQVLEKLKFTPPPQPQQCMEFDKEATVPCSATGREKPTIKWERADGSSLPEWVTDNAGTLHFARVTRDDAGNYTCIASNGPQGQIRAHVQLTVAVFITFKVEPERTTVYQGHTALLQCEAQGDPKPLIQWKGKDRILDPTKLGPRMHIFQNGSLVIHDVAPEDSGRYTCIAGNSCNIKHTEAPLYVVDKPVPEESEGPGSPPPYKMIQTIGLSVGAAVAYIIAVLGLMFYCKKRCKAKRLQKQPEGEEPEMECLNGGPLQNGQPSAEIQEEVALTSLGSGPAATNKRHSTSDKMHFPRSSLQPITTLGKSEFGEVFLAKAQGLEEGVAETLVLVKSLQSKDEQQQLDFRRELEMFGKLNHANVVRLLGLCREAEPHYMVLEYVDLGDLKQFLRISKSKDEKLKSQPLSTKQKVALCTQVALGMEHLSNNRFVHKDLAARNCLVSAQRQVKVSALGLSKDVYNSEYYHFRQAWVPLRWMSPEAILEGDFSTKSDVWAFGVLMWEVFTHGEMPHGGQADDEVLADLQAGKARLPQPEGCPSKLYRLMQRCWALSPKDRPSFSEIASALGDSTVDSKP

[2] = molecular target: T2, mouse PTK7 protein (extracellular sequence of mouse PTK7 with C-terminal 6×His tag) (mouse, UniProt Q8BKG3 23-696); test: BLI (ForteBio), antibody on Protein A sensor
T2 construct: extracellular domain; Expressed transiently in HEK293 cells
T2 sequence: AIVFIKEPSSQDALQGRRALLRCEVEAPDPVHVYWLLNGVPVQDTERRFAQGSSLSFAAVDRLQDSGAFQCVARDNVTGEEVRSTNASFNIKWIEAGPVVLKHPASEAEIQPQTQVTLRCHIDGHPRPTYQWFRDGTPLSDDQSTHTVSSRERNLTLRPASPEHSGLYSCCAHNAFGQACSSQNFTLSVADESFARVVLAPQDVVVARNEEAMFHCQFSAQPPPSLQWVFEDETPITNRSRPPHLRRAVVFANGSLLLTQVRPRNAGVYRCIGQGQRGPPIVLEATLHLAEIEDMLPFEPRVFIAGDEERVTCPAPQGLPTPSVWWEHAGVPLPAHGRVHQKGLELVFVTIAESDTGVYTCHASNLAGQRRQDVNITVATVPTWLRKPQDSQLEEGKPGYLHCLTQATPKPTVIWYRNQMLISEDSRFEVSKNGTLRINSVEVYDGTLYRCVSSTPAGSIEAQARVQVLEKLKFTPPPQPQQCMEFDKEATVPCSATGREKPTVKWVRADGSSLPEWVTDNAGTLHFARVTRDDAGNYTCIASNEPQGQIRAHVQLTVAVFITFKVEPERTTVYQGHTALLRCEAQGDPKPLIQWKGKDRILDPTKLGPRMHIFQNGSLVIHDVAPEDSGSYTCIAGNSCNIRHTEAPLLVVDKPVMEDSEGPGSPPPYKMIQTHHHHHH
Description: The dynamic affinity of the control Hu24 and candidate antibodies 64A10HZ, 101A6HZ, 4E12HZ and 19C2HZ with human PTK7-His was detected by using ForteBio (Pall life sciences).
ELISA and ForteBio were adopted to detect binding of the anti-human PTK7 chimeric and humanized antibodies to the monkey, mouse and rat PTK7 proteins.

[3] = molecular target: T3, human PTK7 protein (extracellular sequence of human PTK7 with C-terminal 6×His tag) (human, UniProt Q13308 31-704); test: ELISA, coated human PTK7 protein 1 µg/ml
T3 construct: extracellular domain; Expressed transiently in HEK293 cells; also called human PTK7-His; human PTK7-His protein
T3 sequence: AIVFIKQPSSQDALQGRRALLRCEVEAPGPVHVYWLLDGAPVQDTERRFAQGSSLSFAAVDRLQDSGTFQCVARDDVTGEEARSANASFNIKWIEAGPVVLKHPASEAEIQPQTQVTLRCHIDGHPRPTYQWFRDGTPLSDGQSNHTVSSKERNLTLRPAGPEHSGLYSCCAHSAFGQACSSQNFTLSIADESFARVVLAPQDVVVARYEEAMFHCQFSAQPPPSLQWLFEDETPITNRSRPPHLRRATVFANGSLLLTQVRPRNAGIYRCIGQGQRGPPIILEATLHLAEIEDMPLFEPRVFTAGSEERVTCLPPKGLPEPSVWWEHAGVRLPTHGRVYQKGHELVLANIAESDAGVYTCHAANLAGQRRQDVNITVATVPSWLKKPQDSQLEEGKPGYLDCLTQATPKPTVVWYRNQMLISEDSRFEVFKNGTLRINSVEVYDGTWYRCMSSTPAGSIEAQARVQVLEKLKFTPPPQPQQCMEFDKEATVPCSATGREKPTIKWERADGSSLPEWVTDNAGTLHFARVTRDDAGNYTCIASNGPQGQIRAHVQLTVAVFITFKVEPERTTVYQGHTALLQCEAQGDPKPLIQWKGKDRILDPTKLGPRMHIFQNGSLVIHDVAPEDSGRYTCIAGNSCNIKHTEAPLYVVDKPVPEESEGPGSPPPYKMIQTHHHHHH
Protocol: Original data was imported into software for nonlinear curve fitting, and EC₅₀ of binding of each antibody to human PTK7 and monkey PTK7 was calculated, respectively. As shown in Table 1 and FIGS. 1A-1B, the screened antibodies could be bound to the human and monkey PTK7 proteins with affinity higher than that of the control antibody Hu24.

IC50 (read off the curve) [1]: ~0.3 µg/mL
B1: 64A10HZ (anti-human PTK7 humanized antibody) (antibody, human IgG1, kappa, V domains shown)
VH: QVQLQESGPGLVKPSETLSLTCTVSGFSLTSYGVYWVRQPPGKGPEWLGVIWTSGNTNYNPSLKSRLTISKDNSKNQVSLKLSSVTAADTAVYYCVKHDGGNYVGVMNYWGQGTLVTVSS
VL: EIVMTQSPDFQSVTPKEKVTITCRASQSISDYLHWYQQKPDQSPKLLIKYASQSISGVPSRFSGSGSGSDFTLTINSLEAEDAATYYCQNGHSFPPTFGQGTKLEIKR
notes: Human IgG1 heavy chain constant region and human Kappa light chain constant region; expressed in CHO-S cells

binding result [2]: no binding
B2: 101A6HZ (anti-human PTK7 humanized antibody) (antibody, human IgG1, kappa)
heavy: not shown
light: DIVMTQSPDSLAVSLGERATINCKASQDVGSAVIWYQQKPGQSPKLLIYWASTRHTGVPDRFSGSGSGTDFTLTISSLQAEDVAVYYCQQYSSYPLTFGQGTKLEIKRTVAAPSVFIFPPSDEQLKSGTASVVCLLNNFYPREAKVQWKVDNALQSGNSQESVTEQDSKDSTYSLSSTLTLSKADYEKHKVYACEVTHQGLSSPVTKSFNRGEC

EC50 [3]: 0.0457 µg/mL
B3: Hu24 (PTK7 control antibody, taken from Hu24 in the Patent CN201580030255) (antibody)
chain 1: QVQLVQSGPEVKKPGASVKVSCKASGYTFTDYAVHWVRQAPGKRLEWIGVISTYNDYTYNNQDFKGRVTMTRDTSASTAYMELSRLRSEDTAVYYCARGNSYFYALDYWGQGTSVTVSS
chain 2: EIVLTQSPATLSLSPGERATLSCRASESVDSYGKSFMHWYQQKPGQAPRLLIYRASNLESGIPARFSGSGSGTDFTLTISSLEPEDFAVYYCQQSNEDPWTFGGGTKLEIK
